Reference: patent US20030061635A1, “Pollen-specific novel calmodulin-binding protein, NPG1 (No Pollen Germination1), promoter, coding sequences and methods for using the same” (priority 2001, published 2003)

Assays:
[1] = target: T1, HRP-CaM (Arabidopsis CaM2) (Arabidopsis thaliana, UniProt P0DH97); assay: HRP-CaM blot overlay assay; assay type: binding
T1 construct: made in house; host or cells: E. coli BL21(DE3)
Procedure: (§1) HRP was conjugated to CaM and used in blot overlay assays according to the procedure described by Lee et al. (1999) BBA 1433:56-67. Briefly, the Arabidopsis CaM2 was incubated in 25 mM Tris-HCl, pH 7, 2 mM EGTA, and 0.1 M DTT at 55° C. for 1.5 h and the reduced CaM was extensively dialyzed against phosphate-buffered saline at 4° C. Maleimide-activated HRP (Pierce Biotechnology, Inc., Rockford, Ill.) and reduced CaM were incubated at a molar ratio of 1:1 in phosphate-buffered saline at room temperature for 1.5 h. The resulting HRP-CaM complex was verified on a denaturing gel and used in blot-overlay assays. Protein blots were prepared as described above, rinsed in TBST (TBS containing 0.1% (v/v) Tween 20), and blocked by incubating in TBST plus 7% (w/v) non-fat dry milk overnight. The blocked membranes were washed three times, 5 min each, with TBST. […] The proteins that bound to HRP-CaM were detected by immersing the blots in a substrate solution as above.
Maize pollen proteins were extracted in a buffer containing 50 mM Tris-HCl, pH 7.4, 250 mM sucrose, 5 mM DTT, and complete protease inhibitor mixture. […] The absorbance of the eluted fractions was recorded at 235 and 280 nm to compare the elution profile of protein with EGTA. […]

[2] = target: T2, biotinylated CaM (Bos taurus, UniProt P62157); assay: Blot overlay of fusion proteins with biotinylated CaM; assay type: binding; conditions: in the presence of Ca2+
T2 construct: purchased Calbiochem-Novabiochem (San Diego, Calif.)
Procedure: Soluble and insoluble proteins from the induced and un-induced cultures were separated on 12% SDS-polyacrylamide gels and blotted as described above. To detect the binding of the expressed proteins to ^35S-labeled AtCaM, duplicate blots were blocked for 15 min in TBS (50 mM Tris-HCl, pH 7.5, 150 mM NaCl) containing 5 mM of either CaCl2 or EGTA and 1% nonfat dry milk. The blots were then incubated for 12 h in a mixture of ^35S-labeled AtCaM isoforms at […] in the same buffers as above. The filters were then washed with the corresponding buffer and dried before exposing to X-ray film. Binding to biotinylated CaM was detected by blocking the blots in 3% gelatin in TBS/Ca/Mg or TBS/EGTA/Mg (50 mM Tris-HCl, pH 7.5, 50 mM MgCl2, 150 mM NaCl, and 5 mM of either CaCl2 or EGTA) at 30° C. The blots were then incubated in […] biotinylated CaM for 2 h in TBS/Ca/Mg or TBS/EGTA/Mg containing 0.1% Tween 20 and 1% gelatin followed by three washes of 10 min each in the corresponding buffers above. The blots were then incubated in Vectastain ABC.HRP in TBS/Ca/Mg or TBS/EGTA/Mg for 30 min, washed 3 times, 10 min each, with the above buffer and the CaM-binding proteins were detected colorimetrically in a substrate solution (0.8 mg/ml diaminobenzidine, 0.4 mg/ml NiCl2, and 0.009% H2O2 in 100 mM Tris-HCl, pH 7.5).

[3] = test system: 35S-labeled AtCaM; assay: Blot overlay of bacterially expressed maize NPG1 fusion proteins with 35S-CaM; assay type: binding, Arabidopsis thaliana; conditions: in the presence of EGTA
Procedure: The 1.2-kb cDNA insert (named P3) containing the coding region for 242 amino acids in the carboxyl-terminal region was cloned in-frame into a pET28b expression vector. For mapping the CaM-binding domain, several truncated constructs were prepared in a pET vector. The P3 cDNA in pET28 was digested with either NcoI or BamHI to release a 168- or 717-bp fragment corresponding to the 5′ end of the cDNA. The NcoI and BamHI fragments were cloned into pET28b vector digested with the respective enzymes to generate P3/NcoI and P3/BamHI clones. The P3 clones lacking either NcoI or BamHI fragments were religated to generate PΔNcoI and PΔBamHI expression clones. […]
Soluble and insoluble proteins from the induced and un-induced cultures were separated on 12% SDS-polyacrylamide gels and blotted as described above. […] Binding to biotinylated CaM was detected by blocking the blots in 3% gelatin in TBS/Ca/Mg or TBS/EGTA/Mg (50 mM Tris-HCl, pH 7.5, 50 mM MgCl2, 150 mM NaCl, and 5 mM of either CaCl2 or EGTA) at 30° C. […] The blots were then incubated in Vectastain ABC.HRP in TBS/Ca/Mg or TBS/EGTA/Mg for 30 min, washed 3 times, 10 min each, with the above buffer and the CaM-binding proteins were detected colorimetrically in a substrate solution (0.8 mg/ml diaminobenzidine, 0.4 mg/ml NiCl2, and 0.009% H2O2 in 100 mM Tris-HCl, pH 7.5).

[4] = target: T3, CaM-Sepharose (Bos taurus, UniProt P62157); assay: Native NPG1 from maize pollen on CaM-Sepharose column / pull-down with CaM-Sepharose beads; assay type: binding, bovine; conditions: bound with Ca2+, eluted with EGTA; maize pollen extract
T3 construct: purchased Amersham Pharmacia Biotech UK Ltd., Little Chalfont, Buckinghamshire, UK
Procedure: Maize pollen proteins were extracted in a buffer containing 50 mM Tris-HCl, pH 7.4, 250 mM sucrose, 5 mM DTT, and complete protease inhibitor mixture. The extract was first centrifuged at 14,000×g for 20 min and then at 100,000×g for 15 min at 4° C. to obtain the supernatant containing soluble proteins. Prior to loading the supernatant onto the CaM-Sepharose column (Amersham Pharmacia Biotech UK Ltd., Little Chalfont, Buckinghamshire, UK) the concentration of Ca^2+ was adjusted to 1.25 mM. The flow-through was collected and saved. The column was washed thoroughly with binding buffer (50 mM Tris-HCl, pH 7.5, 150 mM NaCl, 1.25 mM CaCl2) to remove unbound proteins. Washes equivalent to 1-bed volume of the column were collected and saved. The CaM-binding proteins were eluted with elution buffer (50 mM Tris-HCl, pH 7.5, 150 mM NaCl, 5 mM EGTA). The absorbance of the eluted fractions was recorded at 235 and 280 nm to compare the elution profile of protein with EGTA. Initial soluble extract, flow-through, wash fraction, and eluted protein were separated on three denaturing gels. One gel was stained with Coomassie Blue and the other two were blotted onto nitrocellulose membranes and probed with NPG1-specific antibody or HRP-CaM.
[…] of pollen soluble proteins prepared as described above were mixed and incubated with 0.2 ml of CaM-Sepharose beads at room temperature for 30 min. […]

[5] = test system: Arabidopsis CaM isoform-2, -4 and -6; assay: Blot overlay of purified AtNPG1 with horseradish peroxidase labeled Arabidopsis CaM isoforms; assay type: binding, Arabidopsis thaliana; conditions: absence or presence of calcium
Procedure: as §1, with “TBST. After equilibration in the overlay buffer (50 mM imidazole-HCl, pH 7.5, and 150 mM NaCl) for 1 h, the membranes were incubated for 1 h in overlay buffer containing 0.1% gelatin and […] HRP-CaM. The HRP-CaM overlay blots were washed sequentially in three buffers. Wash with each buffer was performed five times for 5 min each.” for “TBST.”, “above. […]” for “above.”

[6] = test system: CaM-Sepharose beads; assay: Bacterially expressed AtNPG1 binding to CaM-Sepharose beads; conditions: eluted with EGTA-containing buffer
Procedure: A 2.0 kb EcoRI fragment of AtNPG1 cDNA containing the entire coding region was subcloned into pET28a and the orientation of the cDNA was confirmed by restriction analysis and sequencing. Induction of fusion protein, its purification on CaM Sepharose column and detection with horseradish peroxidase CaM isoforms was performed essentially as described earlier (Reddy and Reddy (2000) J. Biol. Chem. 275:35457-35470).

Row | Molecule | detection by HRP-CaM in blot overlay [1] | binding to biotinylated CaM [2] | binding to CaM [3] | binding of native protein to CaM-Sepharose [4] | binding to Arabidopsis CaM isoforms in blot overlay [5] | binding to CaM-Sepharose beads [6]
1 | NPG1: maize pollen-specific calmodulin-binding protein, 659 amino acid residues, about 72 kDa, SEQ ID NO:1 (protein, X: residue not identified in the source) MPLIRYYVDHVHVAVEARALLGRLEFQKGNVEVALRVFDGIDLQAAIQQFQPSLSDKTPSKKGRTKSEIPSSVPQNNPASLVLEAIYLKSLSLQKLGKSTEAANQCKSVLDSVESIFQNGAPDIEQKLQETVNKSVELLPEAWKHAGSNQEALASYRRALLSPWNLDDECRTRVQKRFASFLLYXTNIDWSPPSMAQQVEGCFVPKNSVEEAVLLLMVVLRSWYQGKTHWDPSVMEHLTYALSLCGEPLVLAKQLEEVLPGVYPRTERWATLALCYYVAGQKDVALNFLRKSLNKLENPNDVLALLLAAKICSKERHLASEGVEYARRVIACAESSDPHLKSVGLHFLGSCLGNKSKVVSSDYQRSLLQTETLKSFAESIGLNRYNADLIFDMGVEYAEQRNMNAALRCAKEFIEATGGSVSKGWRLLALILSAQQRFSEAEVATDAALDETAKLDQGSLLRVKAKLKVAQSSPMEAVEAYRALLALVQAQKNSPGGSCKSATEDADGSVSEFEIWQGLANLYSSLSYWRDAEICLNKARALKLYSAATLHAEGYMHEARDQTTDALAAYVNAFSTELEHVPSKVAIGAMLSKQGPRFLPAARCFLSDALRVEPTNRMAWLYLGKVHRSDGRISDAADCFQAAVMLEESDPVESFSSLS | also detected by HRP-CaM | did not bind to biotinylated CaM | No binding to CaM was observed | binds CaM in the presence of Ca^2+ | – | –
2 | AtNPG1: Arabidopsis NPG1, protein of 704 amino acids, SEQ ID NO:10, bacterially expressed as T7 tag fusion (protein, listed as Arabidopsis thaliana, T7 tag fusion) MLGNQSADFSEKGEDEIVRQLCANGICMKTTEVEAKLDEGNIQEAESSLREGLSLNFEEARALLGRLEYQRGNLEGALRVFEGIDLQAAIQRLQVSVPLEKPATKKNRPREPQQSVSQHAANLVLEAIYLKAKSLQKLGRITEAAHECKSVLDSVEKIFQQGIPDAQVDNKLQETVSHAVELLPALWKESGDYQEAISAYRRALLSQWNLDNDCCARIQKDFAVFLLHSGVEASPPSLGSQIEGSYIPRNNIEEAILLLMILLKKFNLGKAKWDPSVFEHLTFALSLCSQTAVLAKQLEEVMPGVFSRIERWNTLALSYSAAGQNSAAVNLLRKSLHKHEQPDDLVALLLAAKLCSEEPSLAAEGTGYAQRAINNAQGMDEHLKGVGLRMLGLCLGKQAKVPTSDFERSRLQSESLKALDGAIAFEHNNPDLIFELGVQYAEQRNLKAASRYAKEFIDATGGSVLKGWRFLALVLSAQQRFSEAEVVTDAALDETAKWDQGPLLRLKAKLKISQSNPTEAVETYRYLLALVQAQRKSFGPLRTLSQMEEDKVNEFEVWHGLAYLYSSLSHWNDVEVCLKKAGELKQYSASMLHTEGRMWEGRKEFKPALAAFLDGLLLDGSSVPCKVAVGALLSERGKDHQPTLPVARSLLSDALRIDPTNRKAWYYLGMVHKSDGRIADATDCFQAASMLEESDPIESFSTIL | – | – | – | – | bound three Arabidopsis CaM isoforms in a calcium-dependent manner | bound CaM-Sepharose beads in a calcium-dependent manner
